The target in series [1] is RAD-51 (nematode) (UniProt Q95Q25).
The subject of series [2] is RAD-51 (nematode). Kind of series: stopped-flow Cy3 fluorescence, competitor challenge. As to conditions: Cy3 in backbone after nt 21; SF buffer: 50 mM Tris-HCl pH 7.5, 5 mM MgCl2, 50 mM NaCl, 2 mM ATP or ADP or no nucleotide; EMSA 25 C with 0.125% glutaraldehyde; BLI room temperature with …. In general terms: In EMSA bound probe runs differently from free probe, usually more slowly.

In series [3] the test system is RAD-51 (nematode). Kind of series: stopped-flow Cy3 fluorescence. The following applies: SF buffer: 50 mM Tris-HCl pH 7.5, 5 mM MgCl2, 50 mM NaCl, 2 mM ATP or ADP or no nucleotide; EMSA 25 C with 0.125% glutaraldehyde; BLI room temperature with ….

Regarding “RFS-1/RIP-1 complex (from UniProt P34348 1-245)”, in series [1], the stopped-flow, Cy3-43mer ssDNA (15 nM), RAD-51 1 uM pre-mixed with increasing RFS-1/RIP-1 (up to 1 uM), no nucleotide: reduction of the fluorescence increase due to RAD-51 binding to ssDNA came out at 3 fold. Consider “TTTTTTTTTTTTTTTTTTTTTTTTTTTTTTTTTTTTTTTTTTT [(Int21)-Cy3-43mer]”, for which, in series [2], the K half was found to be 26 nM.

The IC50 is the concentration at which inhibition is half-maximal. Read a high IC50 as lower potency. The substance “TTTTTTTTTTTTTTTTTTTTTTTTTTTTTTTTTTTTTTTTTTT [Cy3-43mer (label position not stated)]” had an IC50 in series [3] of 200 nM.

The record behind these values is paper PMC8452638.
